# Test results from patent publication US20220396632A1 (VERSEAU THERAPEUTICS, published 2022).
# Where a chain is given by its changes, count along the chain named.
# T1: Scrambled Y42,52,63(SO3) PSGL-1(42-62) biotin peptide (sulfotyrosine at peptide positions 1, 11 and 22; C-terminal Lys-biotin)
# T1 peptide: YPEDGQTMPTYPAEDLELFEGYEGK
# T2: Biotin PSGL-1(42-62) peptide, unmodified (human, C-terminal Lys-biotin)
# T2 construct: Residues 42-62 followed by GGGK-biotin; also called WT; wild-type
# T2 peptide: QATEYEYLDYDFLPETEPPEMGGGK
# T3: Biotin Y46,48,51(SO3) PSGL-1(42-62) peptide (human, sulfotyrosine at Y46, Y48 and Y51; C-terminal Lys-biotin)
# T3 construct: also called fully sulfated N-terminal PSGL-1 peptide
# T3 peptide: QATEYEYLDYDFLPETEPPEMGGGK
# B1: 03F03 (antibody, V domains shown)
# VH: QVQLQESGPGLVKPSETLSLTCTVSGGSISSSSYYWGWIRQPPGKGLEWIGSIYYSGSTYYNPSLKSRVTISVDTSKNQFSLKLSSVTAADTAVYYCARSRPRPWAFDIWGQGTMVTVSS
# VL: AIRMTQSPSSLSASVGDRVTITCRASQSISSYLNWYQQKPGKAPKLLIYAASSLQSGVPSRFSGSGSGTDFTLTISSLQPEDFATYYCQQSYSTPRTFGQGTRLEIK
# B2: 05C02 (antibody, V domains shown)
# VH: EVKLLESGGGVVQPGRSLRLSCAASGFTFKNFAMHWVRQAPGKGLEWVAVISYDGSSEDYADSVKGRFTLSRDNAKNSLYLQMNNLRAEDTAVYYCARGRRPDYWGQGTLVTVSS
# VL: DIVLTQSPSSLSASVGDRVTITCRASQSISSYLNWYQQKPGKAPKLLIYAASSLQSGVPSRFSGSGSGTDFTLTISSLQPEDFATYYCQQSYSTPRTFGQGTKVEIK
# B3: 06C04 (antibody, IgG4, V domains shown)
# VH: EVQLVESGGGLVQPGGSLRLSCAASGFTFSDHYMDWVRQAPGKGLEWVGRSRNKVKSYTTAYAASVEGRITISRDDSKNSLYLEMNSLKTEDTAVYYCVRVRWGGAFDIWGQGTMVTVSS
# VL: QPVLTQPPSASGSPGQSVTISCTGTSSDVGGYNYVSWYQQHPGKAPKLMIYEVSKRPSGVPDRFSGSKSGNTASLTVSGLQAEDEADYYCSSYAGSNNLRVFGGGTKLTVL
# B4: 09D04 (antibody, IgG4, V domains shown)
# VH: QVQLQQSGGGLVQPGGSLTLSCVGSGFDFRSYAMSWVRQAPGKGLEWVSGINNSGSKTYYADFVKGRFSVSRDNSKNIVWLRMRSLRAEDTAVYYCARRTFGPPHAWGQGTMVTVSS
# VL: DVVMTQSPLSLPVTPGEPASISCRSSQSLLHSNGYTYLEWYLHKPGQSPQLLIYLGSNRASGVPDRFSGSGSGTDFTLKISRVEAEDVGVYYCMHSLHIPFTFGPGTKVDIK
# B5: 05H03 (antibody, IgG4, V domains shown)
# VH: B4 VH
# VL: DIVMTQSPLSLSVTPGEPASISCRSSQSLLHSNGYKYLDWYLQKPGQSPQLLIYMGSNRASGVPDRFSGSGSGTDFTLKISRVEAEDVGVYYCMQGLQSPLTFGGGTKVEIE
# B6: 09C10 (antibody, V domains shown)
# VH: EVKLLESGGGLIQPGGSLRLSCAASGFTVSNNYVTWVRQAPGKGLELVSSIYSGGGTYYADSVKGRFTISRDNSKNTVYLQMNSLRADDTAVYYCARNVPVTNFGYWGQGTLVTVSS
# VL: DIVMTQSPLSLPVTLGQPASISCRSSQSLVYRDGNTYLNWFQQRPGQSPRRLIYKVSNRDSGVPDRFSGSGSGTDFTLKISRVEAEDVGVYYCMQLTHWPPGFAQGTKLEIK
# B7: 06A07 (antibody, IgG4, V domains shown)
# VH: QVQLVQSGPELKNPGASVKVSCKASGYSFTNFYINWVRQAPGRGLEWVGWISPNNGNTHYARNLQGRVTMTTDTSTNTAYLELKNLRSDDTAIYFCGRSVSMGYWGQGTLVTVSS
# VL: LPVLTQPPSVSKGLRQTATLTCTGNSKNVGNQGAAWLQQHQGQPPKLLSYRNNNRPSGISERFSASRSGNTASLTITGLQPEDEADYYCSAWDSSLSAQVFGGGTKLTVL
# B8: 09A08 (antibody, IgG4, V domains shown)
# VH: QVQLVQSGAAVKKPGESLKISCKGSGYTFSNYWIGWVRQMPGKGLEWMGIIYPGDSDTRYSPSFQGQVTISADKSISTAYLQWSSLKASDTAMYYCARHIVGPPKSAFDIWGQGTMVTVSS
# VL: DIVMTQTPLSLPVTLGQPASISCSSSQGLQKRDGNTYLNWFQQRPGQSPRRLIYKVSNRDSGVPDRFSGSGSGTDFTLKISRVEAEDVGVYYCMQGTHWPWTFGQGTRVEIK
# B9: 07E07 (antibody, IgG4, V domains shown)
# VH: QVQLQQSGAEVKKPGASVKVSCKASGYTFTSYYMHWVRQAPGQGLEWMGIINTSSGSTKYAQRFQDRVTVTRDTSTTTVYMELNSLRSEDTAVYYCARGGRAYSGSFDNWGQGTLVTVSS
# VL: B6 VL with I2V, Y31H, L38F, L96A, P101R, G102T, A104G, L109V
# B10: 09A02 (antibody, IgG4, V domains shown)
# VH: EVQLVQSGGGLVKPGGSLRLSCAASGFTFRTAWMSWVRQAPGKGLEWVGRMKSKNDGGTTDYAAPVKGRFTISRDDSRDTVYLQMNSLKTEDTGVYYCATYAAGATVPWGQGTLVTVSS
# VL: DIVMTQTPLSAPVTLGQPASISCRSSRSLLQRNGYNYVDWYQQKAGNPPRLLIYLGSRRASGVPDRFSGSGSDKDFTLKISRVEADDVGFYFCKQSLQAPPTFGGGTKIEIT
# B11: 05A11 (antibody, IgG4, V domains shown)
# VH: EVKLLESGGGVVQPGRSLRLSCAASGFSFSAYGMHWVRQAPGKGLEWVSSISGSGDGTYYADSVKGRFTISRDNSKNTLYLQMNSLRAEDAAVYYCAKSVKGRGYFFDYWGQGTLVTVSS
# VL: DIVLTQSPSSLSASVGDRVTITCRASQSISSYLNWYQQKPGKAPKLLIYAASSLQSGVPSRFSGSGSGTDFTLSISNLQPEDFATYYCQQAYKFPRSFGGGTKVEFK
# B12: 11D10 (antibody, IgG4, V domains shown)
# VH: EVKLLESGGGLVQPGGSLRLSCAVSGFTFSTSAMIWVRQAPGKGLEWVSFISGSTSNTYYADSVKGRFTISRDNSKNTLYLQMNGLTAEDTAVYYCARGTAAATWGQGALVTVSS
# VL: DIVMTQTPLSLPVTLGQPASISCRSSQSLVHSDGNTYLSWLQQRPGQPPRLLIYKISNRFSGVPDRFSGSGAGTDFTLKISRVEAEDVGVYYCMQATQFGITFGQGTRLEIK
# B13: 05E08 (antibody, IgG4, V domains shown)
# VH: EVQLVQSGGGVVQPGRSLRLSCAASGFTFSTYAMHWVRQAPGKGLEWVAVISYDGSNKYYADSVKGRFTISRDNSRNTLFLQMNSLRDEDTAVYYCAKRGTMIRGERSLDFWGQGTLVTVSS
# VL: AIQMTQSPSFLSASVGDRVTITCRASQGINSWLAWYQQKPGTAPNLLIHAASTLQSGVPSRFSGSRSGTEFTLTISSLQPEDFATYYCQQLQSYPLTFGQGTRLEIK
# Target: T1, Scrambled Y42,52,63(SO3) PSGL-1(42-62) …
# Assay: ELISA, immobilized biotin peptide
# How it was run: (§1)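 In this ELISA, half-well high binding plates (Corning Cat. #3690) received 3 ug/mL/25 ul per well of biotin-tagged PSGL-1 peptides covering residues 42 to 62, diluted in PBS, pH 7.4, and coated overnight at 4° C. Duplicate readings for each antibody were averaged and the average assay background was subtracted. PSGL-1 protein or peptide was the positive control.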
"A450nm, 20 nM mAb [A450nm]",binding result,Binder
0.03,no binding (tested: 20 nM),B1
–,no binding (tested: 20 nM),B2
–,no binding (tested: 20 nM),B3
0.05,no binding (tested: 20 nM),B4
0.04,no binding (tested: 20 nM),B5
0.21,–,B6
0.02,no binding (tested: 20 nM),B7
–,no binding (tested: 20 nM),B8
0.01,no binding (tested: 20 nM),B9
0.03,no binding (tested: 20 nM),B10
–,no binding (tested: 20 nM),B11
–,no binding (tested: 20 nM),B12
0.01,no binding (tested: 20 nM),B13

# Target: T2, Biotin PSGL-1(42-62) peptide, unmodified
# Assay: ELISA, immobilized biotin peptide
# How it was run: as §1
EC50 [nM],"A450nm, 20 nM mAb [A450nm]",Binder
> 500,–,B1
3,–,B2
–,0.07,B3
~0.05,–,B4
~0.02,–,B5
–,0.2,B6
7.2,–,B7
> 500,–,B8
> 500,–,B9
~500,–,B10
~500,–,B11
0.51,–,B12
> 500,–,B13

# Target: T3, Biotin Y46,48,51(SO3) PSGL-1(42-62) …
# Assay: ELISA, immobilized biotin peptide
# How it was run: as §1
"A450nm, 20 nM mAb [A450nm]",EC50 [nM],Binder
2.54,0.08,B1
2.8,~0.01,B2
2.64,–,B3
2.63,0.07,B4
2.77,~0.02,B5
2.77,–,B6
2.7,~0.02,B7
2.43,0.1,B8
2.77,0.15,B9
2.82,0.51,B10
2.52,~0.025,B11
2.52,0.65,B12
2.57,~0.01,B13

# Target: T4, Cynomolgus PSGL-1(ECD)-hFc1 (cynomolgus macaque)
# T4 construct: also called Cyno PSGL1-Fc; Cyno PSGL-1(ECD)-Fc
# Assay: ELISA, 20 nM mAb on plate cyno PSGL-1(ECD)-Fc
# Protocol: Antibody binding to plate-immobilized cyno PSGL-1(ECD) was determined either at one concentration (20 nM) or by generating full antibody binding curves (0.003-200 nM). A typical ELISA was performed by overnight coating at 4° C. with 3 ug/mL/25 ul per well of recombinant cyno PSGL-1(ECD) protein in PBS, pH 7.4, in high binding half-well plates (Corning Cat. #3690). […] Anti-PSGL-1 IgG in assay buffer (blocking buffer containing 0.05% tween 20) was added into test and control wells (20 nM/25 ul/well) and the plate incubated for 45 min at 37° C. […] The plate was incubated for 45 min at 37° C., and mAb bound to plate-immobilized target determined at A450 nm using HRP substrate (3,3′,5,5′-tetramethylbenzidine (TMB)). For each antibody, duplicate values were averaged and assay background subtracted.
row,A450nm [A450 nm],Binder
1,0.58,B1
2,0.64,B2
3,0.55,B3
4,1.93,B4
5,2.01,B5
6,1.17,B6
7,1.27,B7
8,1.18,B8
9,0.38,B9
10,0.73,B10
11,0.7,B11
12,1.4,B12
13,0.77,B13
